Experimental data published in US20170233497A1.
Read-outs that look alike come from different tables or passages of the source.

Assays:
[1] = target: recombinant extracellular domain of EGFR (UniProt P00533); experiment: EGFR-coat/anti-7D8-idiotype sandwich ELISA; mixture after 25 mM 2-MEA, 90 min, 37 °C; axis = total antibody of the mixture
[2] = target: recombinant extracellular domain of EGFR (UniProt P00533); experiment: as above; remark: listed apart in the source
[3] = target: mouse FcRn (neonatal Fc receptor), biotinylated (mouse) (UniProt Q61559); experiment: FcRn ELISA at pH 6.0

| Substance | EC50 (read off the curve) [1] | EC50 (read off the curve) [2] | fold higher binding efficiency to mouse FcRn compared to human FcRn [3] |
| --- | --- | --- | --- |
| IgG1-2F8-F405L+IgG4-7D8-CPPC (bispecific antibody) | 0.3 µg/mL |  |  |
| IgG4-2F8 x IgG4-7D8 (bispecific antibody) | 0.4 µg/mL | 0.3 µg/mL |  |
| IgG1-2F8-F405L+IgG4-7D8 (bispecific antibody) | 0.3 µg/mL |  |  |
| IgG4-2F8+IgG4-7D8 (deglyc) (bispecific antibody) |  | 0.4 µg/mL |  |
| IgG1-2F8-ITL (antibody) |  |  | 3 fold |
| bispecific IgG1 generated from IgG1-2F8-ITL and IgG1-7D8-K409R (bispecific antibody) |  |  | 3 fold |
| IgG4-7D8-CPPC x IgG4-2F8 (bispecific antibody) | 0.3 µg/mL |  |  |
